Measured values reported in US7166733B2, “O,O'-Amidomalonate and N,O-Amidomalonate platinum complexes” (priority 2000, dated 2007).

Experiment: Dependence on pH of the isomer ratio of O,O′—Pt to N,O—Pt chelate (195Pt NMR of timed aliquots)
Assay type: physicochemical
Description: The percent of O,O′- and N,O-chelate in timed aliquots of reactions mixtures were determined by removing enough of the reaction mixture (4–15 mL depending on concentration) to give greater than 100 mg of Pt-chelate if only ^195Pt NMR spectroscopy was to be done or about 200 mg if % Pt, and % H2O were also to be determined. The aliquots were purified by ultrafiltration using a Centricon Plus-20 centrifugal filter with a 5 kDa Biomax membrane from Millipore. The charged device was spun at the recommended RCF until less than 1 mL remained. The filtrate was discarded, the retentate was diluted with 15–18 mL water and the sample was centrifuged. This was repeated once more, and the retentate was lyophilized to give the sample for analysis.
^195Pt NMR spectra were obtained from a filtered 0.70 mL solution in 93/7 H2O/D2O in a 5 mm tube. Enough sample (80–120 mg) was used to give a solution that was >50 mM in platinum. The probe was tuned for each sample. A pulse width of 90 degrees, an acquisition time of 10 msec, a spectral window of 100 kHz and no delay was used. The transmitter was tuned to approximately midway between the O,O′—Pt and N,O—Pt chelates shifts (−1896 ppm for cis-diammine Pt and at −2450 for DACH—Pt). Between 50,000 and 1 million transients were typically required to obtain a sufficient (>35:1) s/n ratio for the cis-diammine-Pt and DACH=Pt species, respectively. The resulting FID was increasingly left-shifted until a flat baseline was obtained, a 100 Hz line broadening was applied, and a Fourier fill of 2048 was applied before processing. Integral regions were set and the spectrum's baseline was subjected to a spline fit using VNMR software v6.1. The sample was referenced externally to a 100 mM sample of K2PtCl4 in 95/5H2O/D2O and 100 mM HCl at −1624 ppm. This was also used to determine the 90 degree pulse width and T1.
Four 50 mL Centrifuge tubes were each charged with 1.00 g of p(HPMA)-GFLG-Ama=Pt(NH3)2 (either 100% N,O-chelate) or a 92% O,O-chelate, 8% N,O-chelate mixture. These materials were dissolved in 27 mL Milli-Q water (approx a 4 wt % solution) and adjusted to the pH ranges desired using 1 M NaOH or 5% HClO4 as appropriate. The samples were then heated, with stirring, in a 38° C. water bath and maintained within their specified pH ranges. Timed aliquots were taken and frozen until a suitable time at which point the solutions were concentrated by centrifugal ultrafiltration (one spin down at 4800 rpm, 30° C.) and then transferred to an NMR tube. A small amount of D2O was added to each tube and the ^195Pt NMR spectra were recorded.

[1] = pH 5.0–5.5, 38° C., 100 mM ClO4^−, 1 h
[2] = pH 5.0–5.5, 38° C., 100 mM ClO4^−, 5 h
[3] = pH 5.0–5.5, 38° C., 100 mM ClO4^−, 8 h
[4] = pH 5.0–5.5, 38° C., 100 mM ClO4^−, 22 h
[5] = pH 5.0–5.5, 38° C., 100 mM Cl^−, 1 h
[6] = pH 5.0–5.5, 38° C., 100 mM Cl^−, 5 h
[7] = pH 5.0–5.5, 38° C., 100 mM Cl^−, 8 h
[8] = pH 5.0–5.5, 38° C., 100 mM Cl^−, 22 h

Substance: poly(HPMA)-GFLG-Ama=Pt(NH3)2, N,O—Pt chelate [Example 4]
- N,O— chelate (pH 3.0–3.5, 38° C., 1 h): 2%
- O,O— chelate (pH 3.0–3.5, 38° C., 1 h): 98%
- N,O— chelate (pH 3.0–3.5, 38° C., 5 h): 0%
- O,O— chelate (pH 3.0–3.5, 38° C., 5 h): 100%
- N,O— chelate (pH 3.0–3.5, 38° C., 20 h): 0%
- O,O— chelate (pH 3.0–3.5, 38° C., 20 h): 100%
- N,O— chelate (pH 4.0–4.5, 38° C., 1 h): 55%
- O,O— chelate (pH 4.0–4.5, 38° C., 1 h): 45%
- N,O— chelate (pH 4.0–4.5, 38° C., 5 h): 44%
- O,O— chelate (pH 4.0–4.5, 38° C., 5 h): 56%
- N,O— chelate (pH 4.0–4.5, 38° C., 20 h): 32%
- O,O— chelate (pH 4.0–4.5, 38° C., 20 h): 68%
- N,O— chelate [1]: 90%
- O,O— chelate [1]: 10%
- N,O— chelate [2]: 88%
- O,O— chelate [2]: 12%
- N,O— chelate [3]: 77%
- O,O— chelate [3]: 23%
- N,O— chelate [4]: 75%
- O,O— chelate [4]: 25%
- N,O— chelate [5]: 91%
- O,O— chelate [5]: 9%
- N,O— chelate [6]: 92%
- O,O— chelate [6]: 8%
- N,O— chelate [7]: 89%
- O,O— chelate [7]: 11%
- N,O— chelate [8]: 87%
- O,O— chelate [8]: 13%
- N,O— chelate (pH 5.0–5.5, 38° C., 1 h): 94%
- O,O— chelate (pH 5.0–5.5, 38° C., 1 h): 6%
- N,O— chelate (pH 5.0–5.5, 38° C., 5 h): 85%
- O,O— chelate (pH 5.0–5.5, 38° C., 5 h): 15%
- N,O— chelate (pH 5.0–5.5, 38° C., 20 h): 81%
- O,O— chelate (pH 5.0–5.5, 38° C., 20 h): 19%
- N,O— chelate (pH 6.0–6.5, 38° C., 1 h): 100%
- O,O— chelate (pH 6.0–6.5, 38° C., 1 h): 0%
- N,O— chelate (pH 6.0–6.5, 38° C., 5 h): 100%
- O,O— chelate (pH 6.0–6.5, 38° C., 5 h): 0%
- N,O— chelate (pH 6.0–6.5, 38° C., 20 h): 100%
- O,O— chelate (pH 6.0–6.5, 38° C., 20 h): 0%
